Measurements from patent US11214614B2, “LTBP complex-specific inhibitors of TGFβ and uses thereof” (Scholar Rock, Inc., priority 2019, dated 2022).

Tested on: male C57BL/6J mice on CDHFD (liver fibrosis)
Assay: Choline-deficient high fat diet (CDHFD) model of mouse NASH, liver hydroxyproline content
Type: in vivo
Settings: 15 mg/kg twice a week i.p., weeks 4 through 12 of CDHFD
Text: The Choline deficient high fat diet (CDHFD) is an established diet-induced model of Non-Alcoholic steatohepatitis (NASH). In this model, male C57BL/6J mice are fed a choline deficient, 0.10% Methionine, high fat diet for 12 weeks. Three to six weeks after the start of the CDHFD, activation of pro-fibrotic processes can be detected through increased expression of α-smooth muscle actin (α-SMA) protein, a marker for activation of hepatic stellate cells, and elevated tissue hydroxyproline content reflecting increased collagen synthesis and deposition (Matsumoto et. al, Int J Exp Pathol. 2013 April; 94(2):93-103).
LTBP complex-specific antibodies were tested for their ability to inhibit and/or reduce the extent of liver fibrosis in mice in the CDHFD model as follows. An outline of the study is shown below in Table 21.
Animals in the test cohorts were on the CDHFD for the duration of the study. A separate cohort of mice (Group 1) were administered a regular chow diet as a study control. Antibodies SR-AB42 and SR-AB31 were administered to mice by intraperitoneal (i.p.) injection beginning at 4 weeks post start of the CDHFD. Animals were dosed at antibody test concentrations 15 mg/kg twice a week (i.e., 30 mg/kg/week) for a test duration of 8 weeks (i.e., weeks 4 through 12). […] Endpoint readout was hydroxyproline content. […]

B1: SR-AB42: cycle 3 antibody, lineage SR-AB23; CDRs SEQ ID NO: 166-171; HCVR SEQ ID NO: 318, LCVR SEQ ID NO: 319 (antibody, V domains shown)
VH: QVQLVESGGGVVQPGRSLRLSCAASGFTFRSYVMHWVRQAPGKGLEWVAVISHEGSLKYYADSVKGRFTISRDNSKNTLYLQMNSLRAEDTAVYYCARPRIAARRGGFGYWGQGTLVTVSS
VL: NFMLTQPHSVSESPGKTVTISCTRSSGNIDNNYVQWYQQRPGSSPTTVIYEDNQRPSGVPDRFSGSIDSSSNSASLTISGLKTEDEADYYCQSYDYDTQGVVFGGGTKLTVL
- Hydroxyproline (HYP) in liver tissue: inhibited the increase in HYP
